In patent JP2014141434A (dated 2014):

T1: N末端FLAG−tag付加型カニクイザルROBO4 cynoROBO4−2 (cynomolgus monkey, UniProt Q8WZ75 28-1007 (human entry))
T1 construct: also called pCI−FLAG−cynoROBO4−2
T1 chain: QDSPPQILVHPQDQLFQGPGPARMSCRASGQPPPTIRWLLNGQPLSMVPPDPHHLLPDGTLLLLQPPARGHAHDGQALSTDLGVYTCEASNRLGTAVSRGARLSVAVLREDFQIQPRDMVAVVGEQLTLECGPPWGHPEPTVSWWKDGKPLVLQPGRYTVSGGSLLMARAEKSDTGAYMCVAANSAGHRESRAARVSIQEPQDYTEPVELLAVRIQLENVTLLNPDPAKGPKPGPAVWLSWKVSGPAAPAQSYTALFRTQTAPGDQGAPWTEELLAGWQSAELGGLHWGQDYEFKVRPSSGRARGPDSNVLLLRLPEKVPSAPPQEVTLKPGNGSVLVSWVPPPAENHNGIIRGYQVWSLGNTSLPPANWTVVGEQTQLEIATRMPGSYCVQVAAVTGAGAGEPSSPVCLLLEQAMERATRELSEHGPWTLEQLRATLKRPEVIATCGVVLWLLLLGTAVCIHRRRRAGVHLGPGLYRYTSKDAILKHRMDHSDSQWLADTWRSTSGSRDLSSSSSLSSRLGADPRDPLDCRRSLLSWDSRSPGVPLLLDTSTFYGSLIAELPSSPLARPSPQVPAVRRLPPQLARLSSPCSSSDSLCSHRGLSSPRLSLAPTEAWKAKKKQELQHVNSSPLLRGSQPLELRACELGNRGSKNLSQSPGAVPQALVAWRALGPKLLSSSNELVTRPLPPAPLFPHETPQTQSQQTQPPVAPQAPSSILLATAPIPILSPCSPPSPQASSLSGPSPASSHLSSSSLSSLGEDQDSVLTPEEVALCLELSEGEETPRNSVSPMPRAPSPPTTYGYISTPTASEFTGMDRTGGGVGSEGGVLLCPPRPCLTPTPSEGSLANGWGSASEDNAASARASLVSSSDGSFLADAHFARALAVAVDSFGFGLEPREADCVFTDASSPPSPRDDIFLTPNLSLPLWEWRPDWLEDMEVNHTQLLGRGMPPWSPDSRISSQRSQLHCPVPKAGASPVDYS

T2: N末端FLAG−tag付加型カニクイザルROBO4 cynoROBO4−1 (cynomolgus monkey, UniProt Q8WZ75 28-1007 (human entry))
T2 construct: also called pCI−FLAG−cynoROBO4−1
T2 chain: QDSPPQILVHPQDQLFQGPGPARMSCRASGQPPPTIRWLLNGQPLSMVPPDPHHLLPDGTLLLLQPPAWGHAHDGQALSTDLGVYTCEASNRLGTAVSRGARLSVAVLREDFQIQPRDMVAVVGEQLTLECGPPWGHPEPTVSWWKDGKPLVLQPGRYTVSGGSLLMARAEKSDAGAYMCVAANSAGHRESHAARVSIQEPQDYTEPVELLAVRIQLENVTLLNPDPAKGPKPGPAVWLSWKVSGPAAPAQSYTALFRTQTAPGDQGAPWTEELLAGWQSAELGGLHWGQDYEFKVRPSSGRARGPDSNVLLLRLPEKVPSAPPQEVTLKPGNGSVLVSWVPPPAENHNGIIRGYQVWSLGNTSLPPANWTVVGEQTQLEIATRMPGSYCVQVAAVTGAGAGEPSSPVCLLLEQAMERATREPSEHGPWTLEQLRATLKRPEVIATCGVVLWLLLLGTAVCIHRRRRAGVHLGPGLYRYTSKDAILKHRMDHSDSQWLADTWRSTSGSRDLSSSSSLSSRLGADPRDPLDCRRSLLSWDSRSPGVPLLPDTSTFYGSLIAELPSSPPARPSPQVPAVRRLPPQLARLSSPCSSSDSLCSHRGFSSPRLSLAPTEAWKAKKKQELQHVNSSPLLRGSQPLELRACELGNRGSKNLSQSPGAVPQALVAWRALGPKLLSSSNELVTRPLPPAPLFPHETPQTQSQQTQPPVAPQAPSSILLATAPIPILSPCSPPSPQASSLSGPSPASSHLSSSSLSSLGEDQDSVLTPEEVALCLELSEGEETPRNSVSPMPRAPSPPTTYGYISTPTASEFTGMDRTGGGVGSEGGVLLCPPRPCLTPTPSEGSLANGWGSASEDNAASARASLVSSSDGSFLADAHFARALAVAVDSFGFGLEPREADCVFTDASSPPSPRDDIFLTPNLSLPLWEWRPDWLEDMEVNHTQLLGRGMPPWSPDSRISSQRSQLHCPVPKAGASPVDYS


Assays:
Assay in all cases: flow cytometry, transfected HEK293 cells
[1] = target: T1, N末端FLAG−tag付加型カニクイザルROBO4 cynoROBO4−2
[2] = target: T3, N末端FLAG−tag付加型ヒトROBO1 (human, UniProt Q9Y6N7 58-1651)
T3 construct: also called hROBO1; pCI−FLAG−hROBO1

[3] = target: T2, N末端FLAG−tag付加型カニクイザルROBO4 cynoROBO4−1

T3 sequence (Q9Y6N7 other isoform, or with tags, fused parts or gaps): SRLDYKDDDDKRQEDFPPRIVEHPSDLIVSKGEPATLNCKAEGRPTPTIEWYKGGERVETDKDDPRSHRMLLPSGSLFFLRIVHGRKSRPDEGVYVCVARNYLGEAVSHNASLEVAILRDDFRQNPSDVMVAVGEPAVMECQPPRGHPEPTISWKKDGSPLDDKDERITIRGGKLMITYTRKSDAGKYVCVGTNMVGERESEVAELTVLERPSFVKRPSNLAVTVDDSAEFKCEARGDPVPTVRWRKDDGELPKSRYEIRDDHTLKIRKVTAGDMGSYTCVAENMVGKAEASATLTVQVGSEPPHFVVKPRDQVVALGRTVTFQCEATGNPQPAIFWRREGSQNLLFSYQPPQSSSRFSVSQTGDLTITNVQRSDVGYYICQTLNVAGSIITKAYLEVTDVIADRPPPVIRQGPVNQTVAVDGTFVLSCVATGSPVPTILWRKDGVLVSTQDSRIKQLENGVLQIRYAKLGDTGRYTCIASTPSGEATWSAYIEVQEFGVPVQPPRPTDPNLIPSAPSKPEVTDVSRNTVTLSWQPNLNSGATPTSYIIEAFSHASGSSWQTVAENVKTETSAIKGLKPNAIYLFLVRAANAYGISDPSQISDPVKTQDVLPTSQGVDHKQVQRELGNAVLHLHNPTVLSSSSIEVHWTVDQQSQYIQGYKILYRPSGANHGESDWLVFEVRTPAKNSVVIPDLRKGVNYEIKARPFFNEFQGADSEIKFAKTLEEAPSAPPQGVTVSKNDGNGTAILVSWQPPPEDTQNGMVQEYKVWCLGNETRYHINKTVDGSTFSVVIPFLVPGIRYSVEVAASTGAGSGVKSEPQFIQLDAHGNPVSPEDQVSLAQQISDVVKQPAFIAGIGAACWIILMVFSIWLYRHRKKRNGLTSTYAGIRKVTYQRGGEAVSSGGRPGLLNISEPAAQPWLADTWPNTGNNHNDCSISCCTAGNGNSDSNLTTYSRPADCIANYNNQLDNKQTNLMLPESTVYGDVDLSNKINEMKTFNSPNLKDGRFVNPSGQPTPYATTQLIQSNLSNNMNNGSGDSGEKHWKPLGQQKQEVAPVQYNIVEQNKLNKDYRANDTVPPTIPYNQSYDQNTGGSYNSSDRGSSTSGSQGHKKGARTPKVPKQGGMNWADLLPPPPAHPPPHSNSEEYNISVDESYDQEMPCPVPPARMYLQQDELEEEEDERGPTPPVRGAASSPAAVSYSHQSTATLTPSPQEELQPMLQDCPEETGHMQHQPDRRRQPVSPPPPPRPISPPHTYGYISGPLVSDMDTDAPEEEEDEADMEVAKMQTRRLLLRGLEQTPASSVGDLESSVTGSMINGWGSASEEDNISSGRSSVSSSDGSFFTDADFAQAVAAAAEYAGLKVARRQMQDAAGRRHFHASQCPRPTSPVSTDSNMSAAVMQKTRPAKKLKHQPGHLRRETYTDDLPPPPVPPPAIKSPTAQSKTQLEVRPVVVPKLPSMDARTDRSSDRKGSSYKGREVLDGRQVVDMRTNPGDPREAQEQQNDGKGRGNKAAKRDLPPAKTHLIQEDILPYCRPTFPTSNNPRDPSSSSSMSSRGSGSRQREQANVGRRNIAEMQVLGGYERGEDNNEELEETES

binding result [1]	binding result [3]	Binder	binding result [2]
binds	binds	ヒト化MAb1抗体 H−2143 (antibody, human IgG2, kappa, V domains shown, Humanised IgG2 / kappa; also called H-2143; hMAb1-H4 / hMAb1-L2) VH: EVQLVESGGGLVQPGGSLRLSCAASGFTFSTYAMSWVRQAPGKRLEWVATISQGGTYTYYPDSVKGRFTISRDNAKNTLYLQMNSLRAEDTAVYYCARLIYYDYLDYWGQGTLVTVSS VL: DIVMTQSPLSLPVTLGEPASISCRSSQSLENENKNLYLNWYLQKPGQSPQLLIYRVSNRFSGVPDRFSGSGSGTDFTLKISRVEAEDVGVYYCLQVTHVPWTFGPGTKVDIKR	no binding (tested: 10 μg/mL (method of 4)-4-2))
binds	binds	ヒト化MAb1抗体 H−1143 (antibody, human IgG2, kappa, V domains shown, Humanised IgG2 / kappa; also called H-1143; hMAb1-H2 / hMAb1-L2) VH: EVQLVESGGGLVQPGGSLRLSCAASGFTFSTYAMSWVRQAPGKGLEWVATISQGGTYTYYPDSVKGRFTISRDNAKNTLYLQMNSLRAEDTAVYYCARLIYYDYLDYWGQGTLVTVSS VL: DIVMTQSPLSLPVTLGEPASISCRSSQSLENENKNLYLNWYLQKPGQSPQLLIYRVSNRFSGVPDRFSGSGSGTDFTLKISRVEAEDVGVYYCLQVTHVPWTFGPGTKVDIKR	no binding (tested: 10 μg/mL (method of 4)-4-2))
binds	binds	ヒト化MAb1抗体 H−2140 (antibody, human IgG2, kappa, V domains shown, Humanised IgG2 / kappa; also called H-2140; hMAb1-H4 / hMAb1-L1) VH: EVQLVESGGGLVQPGGSLRLSCAASGFTFSTYAMSWVRQAPGKRLEWVATISQGGTYTYYPDSVKGRFTISRDNAKNTLYLQMNSLRAEDTAVYYCARLIYYDYLDYWGQGTLVTVSS VL: DIVMTQSPLSLPVTLGEPASISCRSSQSLENSNGNTYLNWYLQKPGQSPQLLIYRVSNRFSGVPDRFSGSGSGTDFTLKISRVEAEDVGVYYCLQVTHVPWTFGPGTKVDIKR	no binding (tested: 10 μg/mL (method of 4)-4-2))
		抗ROBO4マウスモノクローナル抗体 MAb1 (antibody, V domains shown, Mouse IgG1 (gamma 1) / kappa from a hybridoma; The constant regions are not in the listing; also called MAb1) VH: EVQLVESGGGLVKPGGSLKLSCAASGFTFSTYAMSWVRQTPEKRLEWVATISNGGTYTYYPDSVKGRFTISRDNAENTLYLQMSSLRSEDTAMYFCARLIYYDYLDYWGHGTTLTVSS VL: DAVMTQTPLSLPVSLGDQASISCRSSQSLENSNGNTYLNWYFQKPGQSPQLLIYRVSNRFSGVLDRFSGSGSGTDFTLKISRVEAEDFGVYFCLQVTHVPWTFGGGTKLEIKR	no binding (tested: 10 μg/mL)
